The source of these data is the supplement of paper PMC10724198.

± gives the standard deviation of the averaged measurements.
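Also: PSI is a weighted mean of sequencing reads over stability bins, variants kept only with over 10 reads, mCherry proximal and sfGFP distal, peptide attached via GGGS linker.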

In the data set the test system is Saccharomyces cerevisiae. Description: protein stability index of tFT-peptide fusion (C-terminal peptide) (PSI (0-1 scale)); higher = more stable (slower turnover). To be noted: genetic background: wild type; temperature: 30 C.
Regarding KSDKVYKQKPNT, the protein stability index amounted to 0.705 ± 0.11.
The result for KSIVAQGRLKPR reads 0.685 ± 0.026; that for KSKTYIKKTRKQ, 0.744 ± 0.031; that for KSRRTTMINIRC, 0.668 ± 0.016.
Under KTALWQPNCKTD stands 0.655 ± 0.011; under KTFGHQYVFIRK, 0.689 ± 0.013; under KTKKRHKENRKE, 0.791 ± 0.067.
The result for KTKNEKHPKTTK reads 0.766 ± 0.045; that for KTLALSAQHPGS, 0.645 ± 0.012; that for KTNKDKKRTKTV, 0.714 ± 0.2.
For KTTTQRQEETAE, the protein stability index amounted to 0.605 ± 0.033.
The result for KVAFKTNQHLGR reads 0.661 ± 0.03.
For the sequence KVAGRLAATRSR, the protein stability index amounted to 0.716 ± 0.013.
The result for KVCGRIWWCPRA reads 0.638 ± 0.03; that for KVDYIKKKNSRE, 0.7142 ± 0.0036.
KVEVKRMKKEVK yielded a protein stability index of 0.668 ± 0.014.
Sequence KVFTQGPGRMLE returned a protein stability index of 0.758 ± 0.021.
Regarding KVGGRGQGVKLG, the protein stability index was found to be 0.629 ± 0.034.
In the case of KVIGSAPRAEGR, the protein stability index was 0.656 ± 0.065.
Regarding KVLGSNNMRRSS, the protein stability index is 0.702 ± 0.018.
Under KVMTEARTPALS stands 0.702 ± 0.027; under KVRGMKIKGKLD, 0.675 ± 0.054.
In turn, KVYTALWLLAGN came in with a protein stability index of 0.698 ± 0.028.
Under KWETAAGSSDGP stands 0.6993 ± 0.0032.
In turn, KWNITKEQENSR showed a protein stability index of 0.681 ± 0.018.
KWQRIKNSPNRK yielded a protein stability index of 0.749 ± 0.059.
In turn, KYNKSRRGKIKT had a protein stability index of 0.697 ± 0.062.
Sequence LAALVGGNRGRG yielded a protein stability index of 0.704 ± 0.081.
The result for LAAVAAGDVGGG reads 0.674 ± 0.035; that for LALTFRLQAPLA, 0.695 ± 0.017; that for LANAGLVLPRIP, 0.679 ± 0.0071.
Sequence LAPPIRPCPPSP had a protein stability index of 0.681 ± 0.056.
Consider LAPTNAPYPHPM, for which the protein stability index was determined as 0.658 ± 0.015.
Take LASCVTRTMAWD: the protein stability index amounted to 0.664 ± 0.071.
As for LASREFGVFCIW, the protein stability index amounted to 0.648 ± 0.057.
As for LATGCVGVRGHE, the protein stability index turned out to be 0.719 ± 0.023.
The sequence LAVILLVLPGND yielded a protein stability index of 0.563 ± 0.011.
Turning to LAWFDLAPSTLP, the protein stability index was determined as 0.827 ± 0.14.
The sequence LAWYPGYCYCCL displayed a protein stability index of 0.598 ± 0.0089.
Sequence LAYAPLNGDVPY gave a protein stability index of 0.68 ± 0.01.
LCAETGVGPGLW gave a protein stability index of 0.724 ± 0.016.
With LCGFLPSFHLLY, the protein stability index was 0.679 ± 0.0088.
LCHESFDGTFVN had a protein stability index of 0.72 ± 0.022.
The sequence LCLCGLLGSGPT registered a protein stability index of 0.736 ± 0.042.
The sequence LCLFGGLVAFWC gave a protein stability index of 0.585 ± 0.027.
Consider LCPALLFLLARS, for which the protein stability index was determined as 0.5141 ± 0.0033.
Consider LCPDFSLQWSFD, for which the protein stability index stood at 0.759 ± 0.019.
In turn, LCPPLPPSPPRS displayed a protein stability index of 0.70073 ± 0.00018.
For LCQWLIEFTVLF, the protein stability index amounted to 0.515 ± 0.025.
Under LCSPSPPCPRLP stands 0.748 ± 0.025; under LDEQKLKLPPVK, 0.736 ± 0.024; under LDFLLSMVHGKK, 0.702 ± 0.022.
As for LDGLNLVRVVGV, the protein stability index came out at 0.674 ± 0.044.
Regarding LDINWVGGAPEV, the protein stability index amounted to 0.727 ± 0.042.
Sequence LDKLLFIFNCGC yielded a protein stability index of 0.66 ± 0.044.
The result for LDRGPFADQAPH reads 0.678 ± 0.012; that for LEGNRGYKRNGK, 0.637 ± 0.084.
For LELTTIRHNHEL, the protein stability index amounted to 0.695 ± 0.029.
Turning to LERSTCYPREPM, the protein stability index amounted to 0.69 ± 0.1.
Under LESLPSPLHLPM stands 0.629 ± 0.026; under LETIFEDFGKYR, 0.794 ± 0.092.
As for LFAGPPTGPNAR, the protein stability index was 0.802 ± 0.12.
Sequence LFANGSGSSTSR displayed a protein stability index of 0.715 ± 0.031.
Sequence LFCARNGILLSV returned a protein stability index of 0.516 ± 0.0084.
Sequence LFCSSHRMQTKL registered a protein stability index of 0.746 ± 0.029.
Under LFFLLCHVGSFR stands 0.516 ± 0.0085.
With LFGFFLECCFCT, the protein stability index was 0.599 ± 0.052.
The result for LFGGCRLVGSVV reads 0.711 ± 0.023; that for LFGLCLAGFCVP, 0.625 ± 0.046.
Regarding LFIVSFSPGFPF, the protein stability index was 0.635 ± 0.11.
Under LFLELSSCVGVF stands 0.62 ± 0.024; under LFLFPVCFTNDL, 0.661 ± 0.025; under LFLFSSAGYPNS, 0.661 ± 0.1.
The result for LFLLALFPPPAS reads 0.738 ± 0.013; that for LFLSFFLPSYNT, 0.66 ± 0.026; that for LFLTFYSPLSFT, 0.646 ± 0.022.
For the sequence LFPCFSFPFSFL, the protein stability index came to 0.587 ± 0.055.
In turn, LFPHPGPHHPSV showed a protein stability index of 0.716 ± 0.016.
Regarding LFPPAFSAFLPF, the protein stability index is 0.725 ± 0.024.
On to LFPPTPRPLPLP, for which the protein stability index stood at 0.654 ± 0.023.
